Results from patent US7994123B2, “Hybrid proteins with ErbB4 extracellular domain and neuregulin heparin-binding domain for targeting” (Wayne State University, priority 2004, dated 2011).

Tests used:
[1] = system: MCF10CA1 human breast cancer cells; experiment: Cell proliferation assay, MCF10CA1; format: cell-based
Method: (§1) Cell proliferation assays: All three breast epithelial cell lines were plated at 5000 cells/well in 48 well plates in regular MCF10A/AT or MCF10CA1 media. After incubation for 3 days, 1 nM NRG in MCF10A/AT media or just MCF10A/AT media alone were applied to the cells for another 24 hours followed by washing them with culture media and then counting cell numbers using an hemocytometer on the 4th, 5th, 6th, 7th and 8th day.
(§2) After 2 days, the Optimem I conditioned media was concentrated by Centricon at 4° C. 40 μl of IgB4 conditioned media or 10 μM of tyrosine kinase inhibitor AG1478 were combined with […] 1 nM NRG in MCF10A/AT media for 15 min at room temperature before being added to MCF10CA1 cells for 30 min treatment. […] The amount of each antagonist was determined empirically based on its ability to block NRG-induced activation of L6 cells.

Heparin column binding = details: conditioned media; anti-HA western blot of flow through and elution
Method: (§3) 4. Cell culture: The L6 cells were cultured in DMEM supplemented with 10% fetal calf serum, 1 mM L-glutamine and 1000 U/ml penicillin/streptomycin at 37° C. in 10% CO2 incubator. The HEK293 cells were cultured in DMEM with 10% fetal calf serum, 1 mM L-glutamine, 2 mM sodium pyruvate, 0.1 mM non-essential amino acids, 1000 U/ml penicillin/streptomycin at 37° C. in 10% CO2 incubator. The selective antibiotics Geneticin 200 μg/ml (Gibco-Invitrogen) was added to the cell cultures of stably transfected HEK293 cells harboring the NRG antagonists. 5. Stable expression of NRG antagonists in HEK293 cells: HEK293 cells were cultured in […] flasks to 80% confluence and transfected with the four NRG antagonist constructs using lipofectamine 2000 (Invitrogen Life Science) as instructed. The antibiotic Geneticin was then added at a concentration of 400 μg/ml to the transfected HEK293 cells to select the positive antagonist transfected cells. After three weeks of Geneticin selection, the transfected HEK293 cells were diluted and plated in 96 well plates to yield single positive clones. The single clones that expressed the highest levels of antagonists (confirmed by western blot using HA antibody) were then maintained in culture media with 200 μg/ml Geneticin. Optimem I (Gibco-Invitrogen) was applied to the stably transfected NRG antagonist cell lines at 37° C. in 10% CO2 incubator for 2 days. The conditioned Optimem I media was then used in the following experiments. 6. Heparin column binding: The conditioned media containing the four NRG antagonists was passed through the heparin column to allow binding to heparin. The excessive unbound antagonist proteins were washed off by 1×PBS twice. The antagonist proteins were then eluted by increasing concentration of NaCl (0.25, 0.3, 0.4, 0.5, 0.6 and 1M). The flow through solution from each step was examined by anti-HA western blots, as described later, to determine heparin binding ability of the antagonists. 7. Purification and quantitation of recombinant proteins: The NRG antagonists were purified by anti-HA affinity matrix (3F10) (rat mAb) according to manufacturer's instructions. Briefly, the column was equilibrated with buffer containing 20 mM Tris pH 7.5, 0.1 M NaCl, 0.1 M EDTA, and each antagonist in conditioned medium was applied individually to the anti-HA affinity matrix. Excess unbound antagonist proteins were washed with 20 volume of washing buffer (20 mM Tris pH 7.5, 0.1 M NaCl, 0.1 M EDTA and 0.05% Tween 20). The bound NRG antagonists were eluted with 0.1 M glycine (pH 2). The purified recombinant protein was then quantified using a BioRad Protein Assay kit (Bio-Rad, Hercules, Calif.) 8. Silver stain: Both the conditioned media and the purified NRG antagonists were resolved on 7.5% reducing SDS-polyacrylamide gels. The gel was fixed with 30% ethanol and 10% acetic acid for 30 min. 10% ethanol and ultrapure water were used subsequently to wash the gel before staining with SilverSNAP stain solution with enhancer for 30 min. The gel was then developed using SilverSNAP developer solution with enhancer. 5% acetic acid was used to stop the reaction when the desired band intensity was reached. The gel was dried on filter paper using a vacuum gel dyer. 9. […] Positive control L6 cells were treated with 50 pM NRG alone. L6 cell lysates were prepared and run on 5% SDS-PAGE gel. Western blots of erbB receptor phosphorylation were performed using 4G10 antibody. 10. Western blot: Western blots were performed on both conditioned NRG antagonist media and the antagonist-treated L6 cells. The antagonist proteins and the L6 cells were solubilized in SDS sample buffer and boiled for 5 min as described above (see also Li et al., supra). The NRG antagonists run on 7.5% SDS-PAGE gel were detected by anti-HA mAb HA.11. Phosphotyrosine mAb 4G10 was used to detect phosphorylated erbB receptor (p185) in L6 cell western blot analysis following resolution on overrun 5% reducing SDS-polyacrylamide gels. […]

[2] = system: Mat BIII rat breast cancer cells; experiment: Rat syngeneic breast cancer spontaneous metastasis model; format: in vivo; details: female Fisher rats, 14-day osmotic mini-pump, about 4 mg/kg/day
Method: The rat syngeneic breast cancer system (Xing et al., Int. J. Cancer 67:423-429 (1996) employs Mat BIII rat breast cancer cells. Tumor cells, for example about 10^6 in 0.1 ml PBS, are inoculated into the mammary fat pads of female Fisher rats. At the time of inoculation, a 14-day Alza osmotic mini-pump is implanted intraperitoneally to dispense the test compound. The compound is dissolved in PBS (e.g., 200 mM stock), sterile filtered and placed in the minipump to achieve a release rate of about 4 mg/kg/day. Control animals receive vehicle (PBS) alone or a vehicle control peptide in the minipump. Animals are sacrificed at about day 14. In the rats treated with the active compounds of the present invention, significant reductions in the size of the primary tumor and in the number of metastases in the spleen, lungs, liver, kidney and lymph nodes (enumerated as discrete foci) are observed. Histological and immunohistochemical analysis reveal increased necrosis and signs of apoptosis in tumors in treated animals. Large necrotic areas are seen in tumor regions lacking neovascularization. […] In contrast, treatment with control polypeptides fails to cause a significant change in tumor size or metastasis.

[3] = system: erbB receptor phosphorylation (p185) in L6 cells; experiment: L6 assay: block of NRG-induced erbB receptor phosphorylation (p185); format: cell-based; details: preincubated with L6 muscle cells one hour, thoroughly washed before adding recombinant neuregulin
Method: as §3

MCF10AT cells = experiment: Cell proliferation assay, MCF10AT; format: cell-based, human; details: 1 nM NRG for 24 hours, three days after plating
Method: as §1

[4] = system: eight NRG-response proliferation genes in MCF10A cells; experiment: Northern blot of proliferation genes, MCF10A; format: cell-based, human; details: 1 nM NRG for 24 hours
Method: (§4) RNA preparation and Northern blotting: MCF10A, MCF10AT and MCFCA1 cells were cultured in 25 cm flasks to approximately 60% confluence. The cells were treated with 1 nM NRG in MCF10A/AT media for 24 hours. The cells were then washed with phosphate buffered saline (PBS) once and harvested. Total RNA was extracted from cells using Ultraspec (Biotecx Laboratories, Inc.), “cleaned up” by Rneasy® purification kit (Qiagen, Valencia, Calif.), and subsequently to quantified using a fluorescent dye binding method called Ribogreen (Molecular Probes, Eugene, Oreg.). Northern blots were performed as described previously (Li & Loeb, supra) on RNA extracted from the 3 breast epithelial cell lines after NRG treatment in MCF10A/AT media verses control MCF10A/AT media. Probes were generated by PCR and then prepared by random priming to full-length cDNA clones from the clones provided by Alphagene Inc as described. The membranes were reprobed with a ^32P-labeled GAPDH probe for normalization.

[5] = system: eight NRG-response proliferation genes in MCF10AT cells; experiment: Northern blot of proliferation genes, MCF10AT; format: cell-based, human; details: 1 nM NRG for 24 hours
Method: as §4

[6] = system: eight NRG-response proliferation genes in MCF10CA1 cells; experiment: Northern blot of proliferation genes, MCF10CA1; format: cell-based, human; details: 1 nM NRG for 24 hours
Method: as §4

MCF10A cells = experiment: Cell proliferation assay, MCF10A; format: cell-based, human; details: 1 nM NRG for 24 hours, three days after plating
Method: as §1

[7] = system: erbB receptor phosphorylation (p185) in MCF10AT cells; experiment: p185 receptor phosphorylation western blot, MCF10AT; format: cell-based, human; details: exogenous NRG, 30 min
Method: (§5) Western blots and L6 muscle assays: P185 receptor phosphorylation of the three cell lines was measured by phosphotyrosine western blots after NRG treatment for 30 min on 3 day old cultures as described in WO 03/012045 and Li Q & Loeb J A (2001) J Biol Chem; 276:38068-75. […] The media was discarded and phosphotyrosine western blots were performed as above. The membranes were stripped and reprobed with polyclonal rabbit erbB2 for the detection of overall erbB2 protein that was used for quantitation.

[8] = system: erbB receptor phosphorylation (p185) in MCF10CA1 cells; experiment: p185 receptor phosphorylation western blot, MCF10CA1; format: cell-based, human; details: exogenous NRG, 30 min; above high basal levels
Method: as §5, §2

[9] = system: erbB receptor phosphorylation (p185) in MCF10A cells; experiment: p185 receptor phosphorylation western blot, MCF10A; format: cell-based, human; details: exogenous NRG, 30 min
Method: as §5

Row | Molecule | effectiveness at blocking proliferation compared with Herceptin ([1]; 1 nM GlyB4 versus Herceptin 100 μg/ml) | blocking of cancer cell growth ([1]; 1 nM, treated on days 0, 3 and 6, compared to control cells or cells treated with B4) | binding to heparin column (Heparin column binding) | potency relative to control polypeptides [2] | sustained blockade of neuregulin signaling (p185 phosphorylation) [3] | effect on growth rate of MCF10AT cells (MCF10AT cells) | effect on growth rate of MCF10CA1 cells ([1]; 1 nM NRG for 24 hours, three days after plating) | regulation of 8 NRG-response genes, MCF10A [4] | regulation of 8 NRG-response genes, MCF10AT [5] | regulation of 8 NRG-response genes, MCF10CA1 [6] | effect on growth rate of MCF10A cells (MCF10A cells) | induction of erbB receptor phosphorylation (p185), MCF10AT [7] | induction of erbB receptor phosphorylation (p185), MCF10CA1 [8] | induction of erbB receptor phosphorylation (p185), MCF10A [9]
1 | GlyB4: purified HBD-S-B4 fusion with HIS tag instead of HA tag (protein, left off: small tags and cut ends) QSGYKKKERGSGKKPESAAGSQSPALPPRLKEMKSQESAAGSKLVLRCETSSEYSSLRFKWFKPNGNELNRKNKQNIKIQKKPGKSELRINKASLADSGEYMCKVISKLGNDSASANITIVESNEIITGMPASTEGAYVSSESPIRISVSTEGANTSSSTSTSTTGTSGTQSVCAGTENKLSSLSDLEQQYRALRKYYENCEVVMGNLEITSIEHNRDLSFLRSVREVTGYVLVALNQFRYLPLENLRIIRGTKLYEDRYALAIFLNYRKDGNFGLQELGLKNLTEILNGGVYVDQNKFLCYADTIHWQDIVRNPWPSNLTLVSTNGSSGCGRCHKSCTGRCWGPTENHCQTLTRTVCAEQCDGRCYGPYVSDCCHRECAGGCSGPKDTDCFACMNFNDSGACVTQCPQTFVYNPTTFQLEHNFNAKYTYGAFCVKKCPHNFVVDSSSCVRACPSSKMEVEENGIKMCKPCTDICPKACDGIGTGSLMSAQTVDSSNIDKFINCTKINGNLIFLVTGIHGDPYNAIEAIDPEKLNVFRTVREITGFLNIQSWPPNMTDFSVFSNLVTIGGRVLYSGLSLLILKQQGITSLQFQSLKEISAGNIYITDNSNLCYYHTINWTTLFSTINQRIVIRDNRKAENCTAEGMVCNHLCSSDGCWGPGPDQCLSCRRFSRGRICIESCNLYDGEFREFENGSICVECDPQCEKMEDGLLTCHGPGPDNCTKCSHFKDGPNCVEKCPDGLQGANSFIFKYADPDRECHPCHPNCTQGCNGPTSHDCIYYPWTGHSTLPQHAKN | comparably, if not slightly more, effective | significantly more potent at blocking cancer cell growth | binds to heparin | at least two-fold more potent than the relevant control polypeptides | complete and sustained blockade of neuregulin signaling | – | – | – | – | – | – | – | – | –
2 | NRG: recombinant neuregulin β1 IG-EGF form provided by Amgen (protein) KKKERGSGKKPESAAGSQSPALPPRLKEMKSQESAAGSKLVLRCETSSEYSSLRFKWFKNGNELNRKNKPQNIKIQKKPGKSELRINKASLADSGEYMCKVISKLGNDSASANITIVESNEIITGMPASTEGAYVSSESPIRISVSTEGANTSSSTSTSTTGTSHLVKCAEKEKTFCVNGGECFMVKDLSNPSRYLCKCQPGFTGARCTENVPMKVQNQEKAEELYQKRVLTITGICIALLVVGIMCVVAYCKTKKQRKKLHD | – | – | – | – | – | only a small, initial reduction in growth rate | increased the initial growth rate | rapid down-regulation of all 8 of these genes | rapid down-regulation of all 8 of these genes | very little down-regulation of only a few of these genes | sustained reduction in the growth rate | induced strong erbB receptor phosphorylation | only a small incremental amount of phosphorylation | induced strong erbB receptor phosphorylation
